Binding signal (fold enrichment over IgG) data for three substances are collected here from US20230257746.

For the data set, the target named is T1, ZNF410 (Homo sapiens) (UniProt Q86VK4).
T1 sequence: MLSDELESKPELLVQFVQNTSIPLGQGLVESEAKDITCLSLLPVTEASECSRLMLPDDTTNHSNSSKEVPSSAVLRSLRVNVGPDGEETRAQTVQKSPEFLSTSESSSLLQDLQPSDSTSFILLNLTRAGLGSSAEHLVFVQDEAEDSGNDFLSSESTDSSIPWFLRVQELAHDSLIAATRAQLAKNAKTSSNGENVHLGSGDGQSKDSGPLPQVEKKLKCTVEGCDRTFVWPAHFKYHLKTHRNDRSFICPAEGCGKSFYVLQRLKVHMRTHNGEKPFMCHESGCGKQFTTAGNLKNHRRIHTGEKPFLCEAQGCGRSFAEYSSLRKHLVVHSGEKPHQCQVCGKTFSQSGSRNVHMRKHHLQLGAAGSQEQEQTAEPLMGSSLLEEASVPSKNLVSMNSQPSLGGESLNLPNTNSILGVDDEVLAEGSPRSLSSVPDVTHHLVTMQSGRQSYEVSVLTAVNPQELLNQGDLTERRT
Conditions: CUT&RUN with anti-HA in HUDEP-2 cells.

CHD4 -6 kb enhancer (11 ZNF410 motifs) registered a binding signal (fold enrichment over IgG) of 78.
The result for CHD4 promoter (16 ZNF410 motifs) reads 48; that for NBPF19 intron site, 11.
